B1: FAM189A2 (parent)
chain: VAAALRYLQIFATRRSCIDESQIS
B2: SLC22A15 (parent)
chain: IAQYALLGYFIRSWRTLAILVNLQ

Variants of: B1
Assay: protein stability index of a GFP-peptide fusion (GPS, HEK-293T) (PSI 1-6); higher = more stable
Conditions: c terminus: a fixed tail appended
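Note: lentivirally expressed fusions sorted by FACS into six bins by GFP to DsRed ratio, PSI derived from sequencing read proportions per bin multiplied by bin number.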

Row | Variant | protein stability index
1 | V1K | 1.65
2 | V1P | 1.56
3 | V1D | 1.82
4 | V1H | 2.36
5 | V1M | 1.95
6 | V1Y | 1.07
7 | V1N | 1.89
8 | V1Q | 2.38
9 | V1S | 1.38
10 | V1G | 1.67
11 | V1T | 3.71
12 | V1A | 3.21
13 | V1E | 1.58
14 | V1R | 2.21
15 | V1C | 1.68
16 | V1W | 1.79
17 | A2D | 2.63
18 | A2C | 2.64

Variants of: B2
Assay: as above
Conditions: c terminus: a fixed tail appended

Row | Variant | protein stability index
19 | I19W | 2.01
20 | I19A | 3.93
21 | I19Y | 3.28
22 | I19S | 1.99
23 | I19H | 3.34
24 | I19E | 4
25 | I19K | 2.96
26 | I19T | 2.44
27 | I19N | 3
28 | I19L | 2.4
29 | I19Q | 3.02
30 | I19P | 3.94
31 | I19M | 2.84
32 | I19V | 2.96
33 | I19F | 2.53
34 | I19D | 3.35
35 | I19C | 3.7
36 | I19R | 2.16
37 | T16S | 3.05
38 | T16V | 3.34
39 | T16N | 2.63
40 | T16L | 2.43
41 | T16P | 5.02
42 | T16Q | 3.17
43 | T16R | 3.13

Row | Variant | protein stability index
44 | T16M | 3.23
45 | T16Y | 3.88
46 | N22S | 2.85
47 | N22F | 2.84
48 | N22I | 3.28
49 | N22W | 3.89
50 | N22Q | 3.36
51 | N22A | 2.95
52 | N22M | 2.6
53 | N22K | 2.52
54 | N22T | 1.9
55 | N22G | 1.88
56 | N22V | 2.23
57 | N22H | 2.27
58 | N22E | 2.57
59 | N22R | 1.22
60 | N22D | 3.52
61 | N22Y | 1.37
62 | L23N | 3.06
63 | L23E | 2.25
64 | L23A | 2.65
65 | L23M | 4.11
66 | L23V | 4.42
67 | L23W | 2.35
68 | L23D | 3.83

Row | Variant | protein stability index
69 | L23Y | 3.34
70 | L23P | 2.52
71 | L23C | 3.16
72 | L23H | 2.81
73 | L23I | 2.5
74 | L23Q | 3.66
75 | L23R | 2.6
76 | L23T | 3.08
77 | L23S | 3.76
78 | L23K | 3.75
79 | L23G | 3.35
80 | L23F | 2.79
81 | A18Y | 3.11
82 | A18D | 2.57
83 | A18S | 3.54
84 | A18F | 3.68
85 | A18L | 3.84
86 | A18W | 2.12
87 | A18H | 2.25
88 | A18C | 2.44
89 | A18K | 1.91
90 | A18G | 3.28
91 | A18I | 3.41
92 | A18R | 2.01
93 | A18P | 3

Row | Variant | protein stability index
94 | A18Q | 2.15
95 | A18M | 2.17
96 | A18N | 3.65
97 | L20S | 3.12
98 | L20W | 2.32
99 | L20H | 3.94
100 | L20P | 3.33
101 | L20T | 2.91
102 | L20Y | 2.76
103 | L20R | 3.09
104 | L20I | 5.13
105 | L20E | 2.77
106 | L20M | 3.89
107 | L20V | 2.1
108 | L20K | 2.38
109 | L20G | 3.27
110 | L20C | 3.7
111 | L20D | 2.57
112 | L20N | 2
113 | L20A | 3.21
114 | L20Q | 3.19
115 | L17E | 3.59
116 | L17H | 3.02
117 | L17P | 2.05
118 | L17I | 2.52

Row | Variant | protein stability index
119 | L17F | 2.3
120 | L17R | 1.98
121 | L17G | 3.63
122 | L17W | 2.85
123 | L17M | 2.57
124 | L17A | 3.45
125 | L17D | 2.83
126 | L17T | 4.02
127 | L17Y | 2.18
128 | L17Q | 2.85
129 | L17V | 4.09
130 | L17S | 3.35
131 | L17K | 2.4
132 | Q24Y | 2.82
133 | Q24W | 2.37
134 | Q24S | 2.34
135 | Q24M | 2.6
136 | Q24R | 3.17
137 | Q24N | 2.07
138 | Q24H | 2.79
139 | Q24V | 2.92
140 | Q24L | 3.01
141 | Q24E | 3.5
142 | Q24I | 3.51
143 | Q24F | 2.7

Row | Variant | protein stability index
144 | Q24P | 3.8
145 | Q24K | 3.21
146 | Q24G | 2.66
147 | Q24T | 3.58
148 | Q24A | 4.01
149 | Q24D | 2.49
150 | Q24C | 2.35
151 | V21N | 2.8
152 | V21A | 2.78
153 | V21Q | 2.24
154 | V21R | 2.7
155 | V21T | 3.6
156 | V21H | 2.69
157 | V21E | 2.14
158 | V21S | 2.08
159 | V21C | 2.52
160 | V21F | 2.86
161 | V21I | 4.67
162 | V21G | 1.76
163 | V21K | 2.38
164 | V21L | 3.19
165 | V21D | 2.85
166 | V21Y | 2.37
167 | V21P | 3.37

From the supplement of paper PMC10567573
